Measured values reported in the nanobody polyreactivity screen of Harvey et al. (2022).

Experiment: yeast display, Sf9 membrane polyspecificity reagent, FACS + sequencing; frameworks hold sequencing errors
Outline: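 Using colony PCR, genes from sorted yeast display clones were amplified, then sequenced on MiSeq at 2 × 250 and filtered by CDR length. The clones had been stained with 10% biotinylated, detergent-solubilized Sf9 membrane reagent for 1 hour at 4 °C and sorted by FACS into low and high (top ~1%) gates on anti-HA and streptavidin fluorescence. Polyreactivity labels come from the gate of origin.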

| Sequence | polyreactivity (PSR sort gate) |
| --- | --- |
| QVQLVESGGGLVQAGGSLRLSCAASGRIFHGNAMGWYRQAPGKERELVAAISRSGSRTYYADSVKGRFTISRDNAKNTVYLQMNSLKPEDTAVYYCAAVTFSYQDYYWGQVTQVTVSS | high polyreactivity |
| QVQLVESGGGLVQAGGSLRLSCAASGRIFHGYAMGWYRQAPGKESELVAAISSGGRTNYADSVKGRFTISRDNAKYTVYLQMNSLKPEDTAVYYCAAPVLTSDYTLDSYYWGQGTQVTVSS | high polyreactivity |
| QVQLVESGGGLVQAGGSLRLSCAASGRIFHRYVMGWYRQAPGKERELVAAISSGTGSTYYADSVKGRFTISRDTAKNTVYLLMNSLIPEDTAVYYCNAAPGYTSVTYDYWGQGTQVTVSS | high polyreactivity |
| QVQLVESGGGLVQAGGSLRLSCAASGRIFHVYAMGWYRQAPGKERELVAAISSGDRTYYADSVNGRFIISRDNAKNTVYLQMNSLKPEDTAVYYCWLYPAAVSNYWGQGTQVTVSS | low polyreactivity |
| QVQLVESGGGLVQAGGSLRLSCAASGRIFHYNAMGWYRQAPAKERELVAAINRSGGTTNYADSVKGRFTISRDTAKNTVYLEMNSLIPEDTAVYYCNATLPDYWPYYYYLGGDDYWGQGTQVTVSS | low polyreactivity |
| QVQLVESGGGLVQAGGSLRLSCAASGRIFHYNAMGWYRQAPGKERELVAAITRRGTSTYYADSVKGRFTISRDNAKNTVYLQMNSLKPEDTAVYYCATDYGFKDSVVDFDYWGQGTQVTVSS | low polyreactivity |
| QVQLVESGGGLVQAGGSLRLSCAASGRIFHYNAMGWYRQAPGKERELVAVITTIGGDTYYADSVKGRFTISRDNAKNTVYLQMNSLKPEDTAVYYCAARSRSWRQRYGDFDYWGQGTQVTVSS | low polyreactivity |
| QVQLVESGGGLVQAGGSLRLSCAASGRIFHYNAMGWYRQARGKERQLVAAITGGGGSTYYADSVKGRFTISRDNAKNTVYLEKNSLKPEDTAVYYCAKRYRSSSIRVYYWGLGTQVTVSS | high polyreactivity |
| QVQLVESGGGLVQAGGSLRLSCAASGRIFHYYMGWYRQAPGKERELVAVISSGDGTYYADSVKGRFTISRDNAKYTVYLQMNSLKPEDTAVYYCAADAPREYVDHYKYDDDYWGQGTQVTVSS | low polyreactivity |
| QVQLVESGGGLVQAGGSLRLSCAASGRIFIAYAMGWYRQAPGKERELVAAITDDGGTNYADSVKGRFTISRDNAKNTVYLQMNSLKPEDTAVYYCAATYLIGYYYVWEYDYWGQGTHVTVSS | low polyreactivity |
| QVQLVESGGGLVQAGGSLRLSCAASGRIFIDYAMAWYRQAPGKESELVATNTSSGGSTYYADSVKGRFTISRDNAKNTVYLLMNSLNPEDTAVYFCNKEGSYDYDYWGQGTQVTVSS | low polyreactivity |
| QVQLVESGGGLVQAGGSLRLSCAASGRIFIDYAMGWSRQAHGKERELVAAIDSGGNSNYADSVKGRFTISRDNAKNSVYLQKNSLKPEDTAVYYCNASGVTTDIAGVYWGQGTQVSVSS | low polyreactivity |
| QVQLVESGGGLVQAGGSLRLSCAASGRIFIDYAMGWYRPAPGKERELVATITSSGGSTYYADSVKGRFTISRDNAKNTVYLQMNRLKPEDTAVYYCNKEGSYDYDYWGQGTQVTVSS | low polyreactivity |
| QVQLVESGGGLVQAGGSLRLSCAASGRIFIDYAMGWYRQAPGKERELVATISESGGSTYYADSVKARFTISRDNAKNTVYLQMNSLKPEDTAVYYCAAVGDNLATAEYDFWGQGTKVTVSS | low polyreactivity |
| QVQLVESGGGLVQAGGSLRLSCAASGRIFIENAMGWYRQAPGKERELVAAISGSGGRTYYADSVKGRFTISRDNAKNTVYLQMNSLKPEDTAVYYCAAVLRTQPRRYDYWGQGTQVTVSS | high polyreactivity |
| QVQLVESGGGLVQAGGSLRLSCAASGRIFIFTYALGWYRQAPGKERELVAAITSSGGSTYYADSVKGRFTISRDNAKNTVYLQMNSLKPEDTAVYYCIAYSYYIVHFIRYEYWGQGTQVTVSS | high polyreactivity |
| QVQLVESGGGLVQAGGSLRLSCAASGRIFIGNAMGWYRQAPGKERELVAAISKRGGSTYYADSVKGRFTISRDNAKNTVYLQMNSLKPEDTAVYYCNKESLYREFDYWGQGTQVTVSS | low polyreactivity |
| QVQLVESGGGLVQAGGSLRLSCAASGRIFIGNAMGWYRQAPGKERELVAAISKRGGSTYYADSVKGRFTISRDNAKNTVYLQMNSLKPEDTAVYYCNTESLYREFDDWGQGTQGTVSS | low polyreactivity |
| QVQLVESGGGLVQAGGSLRLSCAASGRIFINNAMGWYRQAPGKERELVAAINTGGGTNYADSVKGRFTISRDNAKNTVYLEMNSLKPEDSAVYYCAARTYDFRARHKDGYWGQGTQVTVSS | high polyreactivity |
| QVQLVESGGGLVQAGGSLRLSCAASGRIFIPYAMGWYRLAPGKERELVAAISSSAGSSYYADSVKGRFTISRDTAKNTVYLQMKSLKPEDTAVYYCAARLYWWYAFETYSSLFEYDYWGQGTQVTVSS | low polyreactivity |
| QVQLVESGGGLVQAGGSLRLSCAASGRIFITKAMGWYRQAPGKERELVAAIRRRGGNTYYADSVKGRFTISRDNAKNTVYLQMNSLKPEDTAVYYCAVYPRPYKYNYWGQGTQVSVSS | high polyreactivity |
| QVQLVESGGGLVQAGGSLRLSCAASGRIFIYNAMGWYCQAPGKERELVAAINRSGVSTHYADSVKGRFTISRDNAKNTVYLQMNSLKPEDTAVYYCARTDYGARSYDYWGQGTQVTVSS | low polyreactivity |

| Sequence | polyreactivity (PSR sort gate) |
| --- | --- |
| QVQLVESGGGLVQAGGSLRLSCAASGRIFIYNAMGWYRPAPGKERELVAAINRSGVSTHYADSVKGRFTISRDNEKNTVYLQMNSLKPEDTAVYYCARTVYGARSYDYWGQGTQVTVSS | low polyreactivity |
| QVQLVESGGGLVQAGGSLRLSCAASGRIFIYNAMGWYRQAPGKEMELVAAISWSGGSTYYADSVKGRFTISRDNAKNTVYLQMNSLKPEDTAVYYCNARYYGPSWNSYDYWGQGTQVTVSS | high polyreactivity |
| QVQLVESGGGLVQAGGSLRLSCAASGRIFIYNAMGWYRQAPGKERELVAAISYSGGRTYYADSVKGRFTISRDNPKNTVYLQMNRLKPEDPAVYYCNAAYRISSAPGYFYFPYNYDYWGQGTQVTVSS | high polyreactivity |
| QVQLVESGGGLVQAGGSLRLSCAASGRIFIYNAMGWYRQATGKERELVAAISYRGGSTYYADSVKGRFTISRDNAKNTVYLQMNSLKPEDTAVYYCNAKIVQYGAHNYWGQGTQVTVSS | high polyreactivity |
| QVQLVESGGGLVQAGGSLRLSCAASGRIFIYNDMGWYRQAPGKERELVAAITFIDDSTNYADSVKGRFTISRDNAKYSVYLQMNRLKPEDTAVYYCAARLYSSASGVRWIKFDYWGQGTQVTVSS | low polyreactivity |
| QVQLVESGGGLVQAGGSLRLSCAASGRIFKFNTMGWYRQAPGKERELVAVITLSGGRTFYADSVKGRFTISRDNAKNTVYLQMNSLKPEDTAVYYCAKDFEGYEGGLSRDDYWGQGTQVTVSS | low polyreactivity |
| QVQLVESGGGLVQAGGSLRLSCAASGRIFKFYDMGWYREAPGKERELVAAISHAGRTNYADSVKGRFTISRDNAKNTVYLQMNSLKPEDTAVYYCNTDYILVRGVPWYYKLDYWGQGTQVTVSS | high polyreactivity |
| QVQLVESGGGLVQAGGSLRLSCAASGRIFKGNAMGWYRQAPGKEREFVAAISQRGGSTYYADSVKGRFTISRDNAKNTVYLQMNSLKPEDTAVYYCAAVRKSVGVKYDYWGQGTQVTVSS | high polyreactivity |
| QVQLVESGGGLVQAGGSLRLSCAASGRIFKGNGMGWYRQAPGKERELVAAISRSGGNTYYADSVKGRFTISRDNAKNTVYLQMNSLKPEDTAVYYCNVRYYTYRFLRFDYWGQGTQVTVSS | high polyreactivity |
| QVQLVESGGGLVQAGGSLRLSCAASGRIFKGYAMGWYRKAPGKERELVAAITISGGSTYYADSVKGRFTISRDNAKNTVYLQMNSLIPEDTAVFYFAARKFVYWYGMEYWGQGTQVTVSS | low polyreactivity |
| QVQLVESGGGLVQAGGSLRLSCAASGRIFKKNAMGWYRQAPGKERELVATITQRGGTTYYADSVKGRFTISRDNAKNTVYLQMNSLKPEDTAVYYCATEGYETWSYWYRGAYTYYYWGQGTQVTVSS | high polyreactivity |
| QVQLVESGGGLVQAGGSLRLSCAASGRIFKNYAMGWYRQAPGKERELVAGITRTGGSTYYADSVKGRFTISRDNAKNTVYLQMNSLKPEDTAVYYCAARPARKLVYWVQGTQVTVSS | high polyreactivity |
| QVQLVESGGGLVQAGGSLRLSCAASGRIFKPYAMGWYRQAPGKERELVAAITDGGTTYYADSVKGRFTISRDNAKNTVYLQMNSLKPEDTAVYYCAADLGKLRYDYWGPGTQVTVSS | low polyreactivity |
| QVQLVESGGGLVQAGGSLRLSCAASGRIFKQYAMGWYRQAPGKERELVAAISVRGGITYYADSVKGRFTISRDNAKNTVYLQMNSLKPEDTAVYYCAKRSYRTHTYDYWGQGTQVTVSS | low polyreactivity |
| QVQLVESGGGLVQAGGSLRLSCAASGRIFKRYAMGWYRQAPGKERELVAAISKSGGSTYYADSVKGRFTISRDNAKNTVYLQMNSLKPEDTAVYYCNADPVRSGLDYWGQGTQVTVSS | high polyreactivity |
| QVQLVESGGGLVQAGGSLRLSCAASGRIFKRYAMGWYRQAPGKERELVAAISRGASTYYADSVKGRFTISRDNAKNTVYLQMNSLKPEDTAVYYCAAKGATPHYDYWGQGTQVTVSS | high polyreactivity |
| QVQLVESGGGLVQAGGSLRLSCAASGRIFKRYAMGWYRQAPGKERELVASITTSGDSTYYADSVKGRFTISRDNAKNTVYLQMNSLKPEDTAVYYCAARSYRGRRYDYWGQGTQVTVSS | high polyreactivity |
| QVQLVESGGGLVQAGGSLRLSCAASGRIFKRYVMGWYRQAPGKERELVAAISQRGGSTNYADSVKGRFTISRDNAKNTVYLQMNSLKPEDTAVYYCAAGFFSRYDYWGQGTQVTVSS | high polyreactivity |
| QVQLVESGGGLVQAGGSLRLSCAASGRIFKSDGMGWYREAPGKERELVATISSSGDSTYYADSVKGRFTISRDNAKNTVYLQMNSLKPDDTAVYHCAKRARYKFGYWGQGTQVTVSS | high polyreactivity |
| QVQLVESGGGLVQAGGSLRLSCAASGRIFKSYAMGWYRQAPGKERELVAAISRGGRTNYADSVKGRFTISRDNAKNTVYLQMNSLKPEVTAVYYCAARFVVQGHSSPYDYWGQGTQVTVSS | high polyreactivity |
| QVQLVESGGGLVQAGGSLRLSCAASGRIFKSYAMGWYRQSPGKERELVAIIRSSGTTYYADSVKGRFTISRDNAKNTVYLQMNSLKPEDTAVYYCAADPYYWRQFNYDYWGQGTQVTVSS | high polyreactivity |
